Measured values as given in paper PMC8053096 (Nucleic Acids Research, 2021).

B1: full-length Escherichia coli Lhr (enzyme, Escherichia coli K-12 MG1655)
chain: SEFELRRQACMADNPDPSSLLPDVFSPATRDWFLRAFKQPTAVQPQTWHVAARSEHALVIAPTGSGKTLAAFLYALDRLFREGGEDTREAHKRKTSRILYISPIKALGTDVQRNLQIPLKGIADERRRRGETEVNLRVGIRTGDTPAQERSKLTRNPPDILITTPESLYLMLTSRARETLRGVETVIIDEVHAVAGSKRGAHLALSLERLDALLHTSAQRIGLSATVRSASDVAAFLGGDRPVTVVNPPAMRHPQIRIVVPVANMDDVSSVASGTGEDSHAGREGSIWPYIETGILDEVLRHRSTIVFTNSRGLAEKLTARLNELYAARLQRSPSIAVDAAHFESTSGATSNRVQSSDVFIARSHHGSVSKEQRAITEQALKSGELRCVVATSSLELGIDMGAVDLVIQVATPLSVASGLQRIGRAGHQVGGVSKGLFFPRTRRDLVDSAVIVECMFAGRLENLTPPHNPLDVLAQQTVAAAAMDALQVDEWYSRVRRAAPWKDLPRRVFDATLDMLSGRYPSGDFSAFRPKLVWNRETGILTARPGAQLLAVTSGGTIPDRGMYSVLLPEGEEKAGSRRVGELDEEMVYESRVNDIITLGATSWRIQQITRDQVIVTPAPGRSARLPFWRGEGNGRPAELGEMIGDFLHLLADGAFFSGTIPPWLAEENTIANIQGLIEEQRNATGIVPGSRHLVLERCRDEIGDWRIILHSPYGRRVHEPWAVAIAGRIHALWGADASVVASDDGIVARIPDTDGKLPDAAIFLFEPEKLLQIVREAVGSSALFAARFRECAARALLMPGRTPGHRTPLWQQRLRASQLLEIAQGYPDFPVILETLRECLQDVYDLPALERLMRRLNGGEIQISDVTTTTPSPFATSLLFGYVAEFMYQSDAPLAERRASVLSLDSELLRNLLGQVDPGELLDPQVIRQVEEELQRLAPGRRAKGEEGLFDLLRELGPMTVEDLAQRHTGSSEEVASYLENLLAVKRIFPAMISGQERLACMDDAARLRDALGVRLPESLPEIYLHRVSYPLRDLFLRYLRAHALVTAEQLAHEFSLGIAIVEEQLQQLREQGLVMNLQQDIWVSDEVFRRLRLRSLQAAREATRPVAATTYARLLLERQGVLPATDGSPALFASTSPGVYEGVDGVMRVIEQLAGVGLPASLWESQILPARVRDYSSEMLDELLATGAVIWSGQKKLGEDDGLVALHLQEYAAESFTPAEADQANRSALQQAIVAVLADGGAWFAQQISQRIRDKIGESVDLSALQEALWALVWQGVITSDIWAPLRALTRSSSNARTSTRRSHRARRGRPVYAQPVSPRVSYNTPNLAGRWSLLQVEPLNDTERMLALAENMLDRYGIISRQAVIAENIPGGFPSMQTLCRSMEDSGRIMRGRFVEGLGGAQFAERLTIDRLRDLATQATQTRHYTPVALSANDPANVWGNLLPWPAHPATLVPTRRAGALVVVSGGKLLLYLAQGGKKMLVWQEKEELLAPEVFHALTTALRREPRLRFTLTEVNDLPVRQTPMFTLLREAGFSSSPQGLDWG
B2: MsmLhr C-terminal domain, MsmLhr-(863-1507) (domain or fragment, Mycobacterium smegmatis, UniProt A0QT91 863-1507, looked up)
chain: SPLAERRAAALALDTVLLSELLGRVELRELLDPAVVASTSAQLQHLTPERAARDAEGVADLLRLLGPLTEADIAQRCTADNIGAWLDGLHAAKRALPVTYAGQTWWAAVEDIGLLRDGIGVPVPVGVPAAFTESASDPLGDLIGRYARTRGPFTTEQTAARFGLGVRVASDVLSRMAVDGRLIRGEFAADLSGEQWCDAQVLKILRRRSLAALRAQVEPVSTDAYARFLPSWQHVGSTNTTGIDGLATVIEQLAGVPIPASAVESLVFPQRVRDYQPAMLDELLASGEVMWSGAGQIGNGDGWVAFHLADTAPLTLTHGAEIEFTDTHRVILETLGHGGAYFFRQLTDGTVEGTAGQELKQALWELIWAGWVTGDTFAPVRAVLSGPRRSGAPAHRQRQRPPRLSRYSVAHAQTRGTDPTVSGRWSALPAAEPDSTVRAHFQAELLLGRHGVLTKGAVGAEGVPGGFATLYKVLSTFEDAGRCQRGYFVESLGGAQFAVASTVDRLRSYLDNVDPERPEYHAVVLAATDPANPYGAALGWPTDSEAHRPGRKAGALVALVDGRLVWFLERGGRSLLSFGADADAQRAAAGALTDLVSAGRIPSLLVERINGVAVLDPDVDAERAVVQDALLGAGLSRTPRGLRLR

Molecular target: the molecule itself
Assay: SEC

Protein	binding result
B1	binds
B2	binds
